The target in test [1] is T1, human Y2 receptor (human, UniProt P49146 1-381).
T1 sequence (looked up): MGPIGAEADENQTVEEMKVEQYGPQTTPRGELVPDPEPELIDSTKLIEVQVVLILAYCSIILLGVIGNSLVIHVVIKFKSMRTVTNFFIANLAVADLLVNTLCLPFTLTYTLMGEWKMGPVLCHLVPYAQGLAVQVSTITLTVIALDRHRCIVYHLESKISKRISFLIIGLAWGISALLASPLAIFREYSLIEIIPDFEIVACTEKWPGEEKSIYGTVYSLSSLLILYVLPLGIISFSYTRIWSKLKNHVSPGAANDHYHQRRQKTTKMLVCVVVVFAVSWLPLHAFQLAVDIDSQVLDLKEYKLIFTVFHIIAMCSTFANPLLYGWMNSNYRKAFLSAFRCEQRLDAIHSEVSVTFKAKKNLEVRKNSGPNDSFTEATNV
Briefly: cell-based or functional assay.

Test [2] concerns the target T1, human Y2 receptor. Briefly: RBA: [125I]-PYY displacement, hY2R/CHO membranes. The essentials:
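Bound radioligand was collected by filtration on PEI-treated GF/C filters, washed with Tris/MgCl₂/NaCl/CHAPS buffer pH 7.4, and counted by scintillation; IC₅₀ values were calculated.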

Starred links: 1 amine or outer side, 2 acyl side, 3 side chain; linkers in the order of their positions; H or OH if unused. Positions of bridges follow the written chain, without caps; N, C: chain ends. Non-standard residues stand in square brackets, D forms with d. No end group written: not given here. Phe(3R-OH) = O=C([C@@H](N[*:1])[C@H](O[*:3])c1ccccc1)[*:2]; Cha = N[C@@H](CC1CCCCC1)C(=O)O; dCha = N[C@H](CC1CCCCC1)C(=O)O; Phg = N[C@H](C(=O)O)c1ccccc1; 4Amb = NCc1ccc(C(=O)O)cc1; Nle = CCCC[C@H](N)C(=O)O; Aib = CC(C)(N)C(=O)O

B1: [D-Arg23, Ala26, Ile28,31]-PYY(23-36) (peptide)
peptide: [dR]LRAYINLITRQRY-NH2
modifications: N-terminus assumed
SMILES: CC[C@H](C)[C@H](NC(=O)[C@H](Cc1ccc(O)cc1)NC(=O)[C@H](C)NC(=O)[C@H](CCCNC(=N)N)NC(=O)[C@H](CC(C)C)NC(=O)[C@H](N)CCCNC(=N)N)C(=O)N[C@@H](CC(N)=O)C(=O)N[C@@H](CC(C)C)C(=O)N[C@H](C(=O)N[C@H](C(=O)N[C@@H](CCCNC(=N)N)C(=O)N[C@@H](CCC(N)=O)C(=O)N[C@@H](CCCNC(=N)N)C(=O)N[C@@H](Cc1ccc(O)cc1)C(N)=O)[C@@H](C)O)[C@@H](C)CC
notes: also called compound No. 27
As for B1, the “GBA EC50 Ratio (vs PYY(3-36)), [35S]GTPγS” value (from here on “GBA EC50 Ratio”) in test [1] came out at 3.6 ratio. The “IC50 Ratio (vs PYY(3-36))” value in test [2] stood at 4.5 ratio.

B2: Ac-[D-Cha24, Ala26, Ile28,31]-PYY(24-36) (peptide)
peptide: Ac-[dCha]RAYINLITRQRY-NH2
SMILES: CC[C@H](C)[C@H](NC(=O)[C@H](Cc1ccc(O)cc1)NC(=O)[C@H](C)NC(=O)[C@H](CCCNC(=N)N)NC(=O)[C@@H](CC1CCCCC1)NC(C)=O)C(=O)N[C@@H](CC(N)=O)C(=O)N[C@@H](CC(C)C)C(=O)N[C@H](C(=O)N[C@H](C(=O)N[C@@H](CCCNC(=N)N)C(=O)N[C@@H](CCC(N)=O)C(=O)N[C@@H](CCCNC(=N)N)C(=O)N[C@@H](Cc1ccc(O)cc1)C(N)=O)[C@@H](C)O)[C@@H](C)CC
notes: also called compound No. 37
On to B2, for which, in test [1], the “GBA EC50 Ratio” value was determined as 4.6 ratio. Moreover, the “IC50 Ratio (vs PYY(3-36))” value in test [2] came out at 7.6 ratio.

B3: 4-Aminomethylbenzoyl-[Ala26, Ile28, Cha31]-PYY(25-36) (peptide)
peptide: [4Amb]RAYINL[Cha]TRQRY-NH2
modifications: N-terminus assumed
SMILES: CC[C@H](C)[C@H](NC(=O)[C@H](Cc1ccc(O)cc1)NC(=O)[C@H](C)NC(=O)[C@H](CCCNC(=N)N)NC(=O)c1ccc(CN)cc1)C(=O)N[C@@H](CC(N)=O)C(=O)N[C@@H](CC(C)C)C(=O)N[C@@H](CC1CCCCC1)C(=O)N[C@H](C(=O)N[C@@H](CCCNC(=N)N)C(=O)N[C@@H](CCC(N)=O)C(=O)N[C@@H](CCCNC(=N)N)C(=O)N[C@@H](Cc1ccc(O)cc1)C(N)=O)[C@@H](C)O
notes: also called compound No. 41
On to B3, for which the “GBA EC50 Ratio” value in test [1] was 8.7 ratio. For the same molecule, the “IC50 Ratio (vs PYY(3-36))” value in test [2] stood at 15 ratio.

B4: 4-Aminomethylbenzoyl-[Ala26, Ile28, Nle31]-PYY(25-36) (peptide)
peptide: [4Amb]RAYINL[Nle]TRQRY-NH2
modifications: N-terminus assumed
SMILES: CCCC[C@H](NC(=O)[C@H](CC(C)C)NC(=O)[C@H](CC(N)=O)NC(=O)[C@@H](NC(=O)[C@H](Cc1ccc(O)cc1)NC(=O)[C@H](C)NC(=O)[C@H](CCCNC(=N)N)NC(=O)c1ccc(CN)cc1)[C@@H](C)CC)C(=O)N[C@H](C(=O)N[C@@H](CCCNC(=N)N)C(=O)N[C@@H](CCC(N)=O)C(=O)N[C@@H](CCCNC(=N)N)C(=O)N[C@@H](Cc1ccc(O)cc1)C(N)=O)[C@@H](C)O
notes: also called compound No. 42
Consider B4, for which, in test [1], the “GBA EC50 Ratio” value was 5.7 ratio. The “IC50 Ratio (vs PYY(3-36))” value in test [2] stood at 10 ratio.
On to {4‑(((imino(octylamino)methyl)amino)methyl)benzoyl}-RAYINLITRQRY-NH2 (also called compound No. 28) [4-({[imino(octylamino)methyl]amino}methyl)benzoyl-[Ala26, Ile28,31]-PYY(25-36)], for which, in test [1], the “GBA EC50 Ratio” value turned out to be 12 ratio. In addition, the “IC50 Ratio (vs PYY(3-36))” value in test [2] was 14 ratio.

B5: cyclo(28-32)-4-Aminomethylbenzoyl-[Lys28, Ile31, Glu32]-PYY(25-36) (peptide)
peptide: [4Amb]RHYKNLIERQRY-NH2
modifications: lactam 5-9; N-terminus assumed
SMILES: CC[C@H](C)[C@@H]1NC(=O)[C@H](CC(C)C)NC(=O)[C@H](CC(N)=O)NC(=O)[C@@H](NC(=O)[C@H](Cc2ccc(O)cc2)NC(=O)[C@H](Cc2c[nH]cn2)NC(=O)[C@H](CCCNC(=N)N)NC(=O)c2ccc(CN)cc2)CCCCNC(=O)CC[C@@H](C(=O)N[C@@H](CCCNC(=N)N)C(=O)N[C@@H](CCC(N)=O)C(=O)N[C@@H](CCCNC(=N)N)C(=O)N[C@@H](Cc2ccc(O)cc2)C(N)=O)NC1=O
notes: also called compound No. 26
Consider B5, for which the “GBA EC50 Ratio” value in test [1] is 11 ratio. The “IC50 Ratio (vs PYY(3-36))” value in test [2] is 18 ratio.
On to Ac-FRAYINLITRQRY-NH2 (also called compound No. 34) [Ac-[Phe24, Ala26, Ile28,31]-PYY(24-36)], for which the “GBA EC50 Ratio” value in test [1] came out at 14 ratio. In test [2], the “IC50 Ratio (vs PYY(3-36))” value is 25 ratio.

B6: [D-Leu24, Ala26, Ile28,31]-PYY(24-36) (peptide)
peptide: [dL]RAYINLITRQRY-NH2
modifications: N-terminus assumed
SMILES: CC[C@H](C)[C@H](NC(=O)[C@H](Cc1ccc(O)cc1)NC(=O)[C@H](C)NC(=O)[C@H](CCCNC(=N)N)NC(=O)[C@H](N)CC(C)C)C(=O)N[C@@H](CC(N)=O)C(=O)N[C@@H](CC(C)C)C(=O)N[C@H](C(=O)N[C@H](C(=O)N[C@@H](CCCNC(=N)N)C(=O)N[C@@H](CCC(N)=O)C(=O)N[C@@H](CCCNC(=N)N)C(=O)N[C@@H](Cc1ccc(O)cc1)C(N)=O)[C@@H](C)O)[C@@H](C)CC
notes: also called compound No. 24
In the case of B6, in test [1], the “GBA EC50 Ratio” value amounted to 9.4 ratio. In addition, the “IC50 Ratio (vs PYY(3-36))” value in test [2] was 14 ratio.
The corresponding values for Ac-PRAYINLITRQRY-NH2 (also called compound No. 38) [Ac-[Pro24, Ala26, Ile28,31]-PYY(24-36)] are 26 ratio and 52 ratio.

B7: 4-Aminomethylbenzoyl-[Ala26, Nle28, Ile31]-PYY(25-36) (peptide)
peptide: [4Amb]RAY[Nle]NLITRQRY-NH2
modifications: N-terminus assumed
SMILES: CCCC[C@H](NC(=O)[C@H](Cc1ccc(O)cc1)NC(=O)[C@H](C)NC(=O)[C@H](CCCNC(=N)N)NC(=O)c1ccc(CN)cc1)C(=O)N[C@@H](CC(N)=O)C(=O)N[C@@H](CC(C)C)C(=O)N[C@H](C(=O)N[C@H](C(=O)N[C@@H](CCCNC(=N)N)C(=O)N[C@@H](CCC(N)=O)C(=O)N[C@@H](CCCNC(=N)N)C(=O)N[C@@H](Cc1ccc(O)cc1)C(N)=O)[C@@H](C)O)[C@@H](C)CC
notes: also called compound No. 21
For the molecule B7, in test [1], the “GBA EC50 Ratio” value was determined as 3.6 ratio. For the same molecule, in test [2], the “IC50 Ratio (vs PYY(3-36))” value was 4.1 ratio.
On the same counts, the results for RYYASLRAYINLITRQRY-NH2 (also called compound No. 2) [[Ala26, Ile28,31]-PYY(19-36)] are 2.1 ratio and 4.9 ratio.

B8: Ac-[D-Phe24, Ala26, Ile28,31]-PYY(24-36) (peptide)
peptide: Ac-[dF]RAYINLITRQRY-NH2
SMILES: CC[C@H](C)[C@H](NC(=O)[C@H](Cc1ccc(O)cc1)NC(=O)[C@H](C)NC(=O)[C@H](CCCNC(=N)N)NC(=O)[C@@H](Cc1ccccc1)NC(C)=O)C(=O)N[C@@H](CC(N)=O)C(=O)N[C@@H](CC(C)C)C(=O)N[C@H](C(=O)N[C@H](C(=O)N[C@@H](CCCNC(=N)N)C(=O)N[C@@H](CCC(N)=O)C(=O)N[C@@H](CCCNC(=N)N)C(=O)N[C@@H](Cc1ccc(O)cc1)C(N)=O)[C@@H](C)O)[C@@H](C)CC
notes: also called compound No. 35
Turning to B8, the “GBA EC50 Ratio” value in test [1] is 8.7 ratio. Moreover, the “IC50 Ratio (vs PYY(3-36))” value in test [2] came out at 14 ratio.

B9: cyclo(27-31)-4-Aminomethylbenzoyl-[Glu27, Ile28, Lys31]-PYY(25-36) (peptide)
peptide: [4Amb]RHEINLKTRQRY-NH2
modifications: lactam 4-8; N-terminus assumed
SMILES: CC[C@H](C)[C@@H]1NC(=O)[C@@H](NC(=O)[C@H](Cc2c[nH]cn2)NC(=O)[C@H](CCCNC(=N)N)NC(=O)c2ccc(CN)cc2)CCC(=O)NCCCC[C@@H](C(=O)N[C@H](C(=O)N[C@@H](CCCNC(=N)N)C(=O)N[C@@H](CCC(N)=O)C(=O)N[C@@H](CCCNC(=N)N)C(=O)N[C@@H](Cc2ccc(O)cc2)C(N)=O)[C@@H](C)O)NC(=O)[C@H](CC(C)C)NC(=O)[C@H](CC(N)=O)NC1=O
notes: also called compound No. 25
Regarding B9, in test [1], the “GBA EC50 Ratio” value was determined as 16 ratio. Besides, the “IC50 Ratio (vs PYY(3-36))” value in test [2] was 30 ratio.

B10: Ac-[D-Pro24, Cha27,28, Aib31, threo-PhSer36]-PYY(23-36) (peptide)
peptide: Ac-S[dP]RH[Cha][Cha]NL[Aib]TRQR[Phe(3R-OH)]-NH2
SMILES: CC(=O)N[C@@H](CO)C(=O)N1CCC[C@@H]1C(=O)N[C@@H](CCCNC(=N)N)C(=O)N[C@@H](Cc1c[nH]cn1)C(=O)N[C@@H](CC1CCCCC1)C(=O)N[C@@H](CC1CCCCC1)C(=O)N[C@@H](CC(N)=O)C(=O)N[C@@H](CC(C)C)C(=O)NC(C)(C)C(=O)N[C@H](C(=O)N[C@@H](CCCNC(=N)N)C(=O)N[C@@H](CCC(N)=O)C(=O)N[C@@H](CCCNC(=N)N)C(=O)N[C@H](C(N)=O)[C@H](O)c1ccccc1)[C@@H](C)O
notes: also called compound No. 200
B10: in test [1], the “GBA EC50 Ratio” value worked out at 10 ratio. Besides, in test [2], the “IC50 Ratio (vs PYY(3-36))” value worked out at 16 ratio.

B11: Ac-[Cha24, Ala26, Ile28,31]-PYY(24-36) (peptide)
peptide: Ac-[Cha]RAYINLITRQRY-NH2
SMILES: CC[C@H](C)[C@H](NC(=O)[C@H](Cc1ccc(O)cc1)NC(=O)[C@H](C)NC(=O)[C@H](CCCNC(=N)N)NC(=O)[C@H](CC1CCCCC1)NC(C)=O)C(=O)N[C@@H](CC(N)=O)C(=O)N[C@@H](CC(C)C)C(=O)N[C@H](C(=O)N[C@H](C(=O)N[C@@H](CCCNC(=N)N)C(=O)N[C@@H](CCC(N)=O)C(=O)N[C@@H](CCCNC(=N)N)C(=O)N[C@@H](Cc1ccc(O)cc1)C(N)=O)[C@@H](C)O)[C@@H](C)CC
notes: also called compound No. 36
As for B11, the “GBA EC50 Ratio” value in test [1] was 13 ratio. Moreover, the “IC50 Ratio (vs PYY(3-36))” value in test [2] was determined as 17 ratio.

B12: 4-Aminomethylbenzoyl-[Ala26, Ile28, Phg31]-PYY(25-36) (peptide)
peptide: [4Amb]RAYINL[Phg]TRQRY-NH2
modifications: N-terminus assumed
SMILES: CC[C@H](C)[C@H](NC(=O)[C@H](Cc1ccc(O)cc1)NC(=O)[C@H](C)NC(=O)[C@H](CCCNC(=N)N)NC(=O)c1ccc(CN)cc1)C(=O)N[C@@H](CC(N)=O)C(=O)N[C@@H](CC(C)C)C(=O)N[C@H](C(=O)N[C@H](C(=O)N[C@@H](CCCNC(=N)N)C(=O)N[C@@H](CCC(N)=O)C(=O)N[C@@H](CCCNC(=N)N)C(=O)N[C@@H](Cc1ccc(O)cc1)C(N)=O)[C@@H](C)O)c1ccccc1
notes: also called compound No. 40
For the molecule B12, the “GBA EC50 Ratio” value in test [1] amounted to 27 ratio. The “IC50 Ratio (vs PYY(3-36))” value in test [2] came to 71 ratio.

(Values after patent US20120172293A1 (Takeda / Millennium, published 2012).)
